Assay results as given in the Immune Epitope Database (IEDB).

Columns and labels:
[1] = biological target: HLA-A*02:02; test: IEDB peptide-MHC binding, purified MHC/competitive/radioactivity; ≥ and ≤ were set here for values at or beyond the usual limits of such assays
[2] = biological target: HLA-A*02:01; test: as above
[3] = biological target: HLA-A*02:06; test: as above
[4] = biological target: HLA-A*02:03; test: IEDB peptide-MHC binding, cellular MHC/competitive/fluorescence; ≥ and ≤ were set here for values at or beyond the usual limits of such assays
[5] = biological target: HLA-A*68:02; test: as above
[6] = biological target: HLA-A*68:02; test: IEDB peptide-MHC binding, purified MHC/competitive/radioactivity; ≥ and ≤ were set here for values at or beyond the usual limits of such assays
[7] = biological target: HLA-A*02:01; test: IEDB peptide-MHC binding, cellular MHC/competitive/fluorescence; ≥ and ≤ were set here for values at or beyond the usual limits of such assays
[8] = biological target: HLA-A*02:06; test: as above
[9] = source organism: Vaccinia virus WR
[10] = source organism: Mammarenavirus machupoense
[11] = source organism: Influenza A virus
[12] = source organism: Mammarenavirus whitewaterense
[13] = source organism: Mammarenavirus brazilense
[14] = source organism: Mammarenavirus choriomeningitidis

VQLSNNKYVL gave an IC50 [1, 9] of 288 nM, an IC50 [2, 9] of 4590 nM and an IC50 [3, 9] of 170 nM. It also gave an IC50 [4, 9] of 9.49 µM and an IC50 [5, 9] of no less than 70 µM.

Work on VVYHDDDNTT yielded an IC50 [1, 9] of 1860 nM, an IC50 [2, 9] of 2980 nM and an IC50 [3, 9] of 3920 nM. The IC50 [4, 9] was 12.6 µM and the IC50 [5, 9] was 27.8 µM.

VQTLISLNSM showed an IC50 [1, 9] of 1560 nM, an IC50 [2, 9] of 259 nM and an IC50 [3, 9] of 853 nM. For the same sequence, the IC50 [4, 9] was 5.82 µM and the IC50 [5, 9] was 50.9 µM.

In the case of KQIMECSRML, the IC50 [1, 9] is reported as 55 nM, the IC50 [2, 9] is reported as 357 nM and the IC50 [3, 9] is reported as 60 nM. It also gave an IC50 [4, 9] of 29.6 µM and an IC50 [5, 9] of 7.47 µM.

In the case of SSWAVHWFS, the IC50 [1, 10] is reported as 4650 nM, the IC50 [6, 10] is reported as 4100 nM and the IC50 [4, 10] is reported as no less than 70 µM. The IC50 [7, 10] was 8.01 µM and the IC50 [8, 10] was 46.8 µM.

NLEELTTVFI was tested, and the IC50 [1, 9] was 418 nM, the IC50 [6, 9] was 1300 nM and the IC50 [4, 9] was 6.5 µM. For the same sequence, the IC50 [7, 9] was 7.5 µM and the IC50 [8, 9] was 12.3 µM.

Work on VTTNNLLEQL yielded an IC50 [1, 9] of 4690 nM, an IC50 [6, 9] of 2940 nM and an IC50 [4, 9] of 17.9 µM. It also gave an IC50 [7, 9] of 21.6 µM and an IC50 [8, 9] of 5.91 µM.

In the case of FNPMIVELA, the IC50 [1, 11] is reported as 937 nM, the IC50 [6, 11] is reported as 1620 nM and the IC50 [4, 11] is reported as 11.6 µM. The IC50 [7, 11] was 25.2 µM and the IC50 [8, 11] was 12.6 µM.

For DIYDAVRAFL, the IC50 [1, 9] was 1460 nM, the IC50 [6, 9] was 257 nM and the IC50 [4, 9] was 6.95 µM. The IC50 [7, 9] was 5.42 µM and the IC50 [8, 9] was 12.1 µM.

For EIARIENEM, the IC50 [1, 9] was 335 nM, the IC50 [6, 9] was 8.4 nM and the IC50 [4, 9] was 47.9 µM. The IC50 [7, 9] was no less than 70 µM and the IC50 [8, 9] was no less than 70 µM.

Sequence LNIALVAVSL has an IC50 [1, 10] of 180 nM, an IC50 [2, 10] of 1250 nM and an IC50 [6, 10] of 520 nM. It also gave an IC50 [4, 10] of 12.5 µM and an IC50 [8, 10] of 13.2 µM.

ELPYVGDTSM gave an IC50 [1, 9] of 4130 nM, an IC50 [6, 9] of 913 nM and an IC50 [4, 9] of 14.2 µM. The IC50 [7, 9] was 13.4 µM and the IC50 [8, 9] was 29.8 µM.

ITDDSDDYEL showed an IC50 [1, 9] of 687 nM, an IC50 [2, 9] of 1730 nM and an IC50 [3, 9] of 49 nM. It also gave an IC50 [4, 9] of 11.9 µM and an IC50 [5, 9] of 11.9 µM.

For VLFQNWGI, the IC50 [1, 11] was 1560 nM, the IC50 [2, 11] was 849 nM and the IC50 [3, 11] was 2640 nM. It also gave an IC50 [4, 11] of 10.1 µM and an IC50 [5, 11] of 54.8 µM.

In the case of IISTDQDTM, the IC50 [1, 9] is reported as 4300 nM, the IC50 [3, 9] is reported as 2360 nM and the IC50 [4, 9] is reported as 33.2 µM. For the same sequence, the IC50 [7, 9] was 5.87 µM and the IC50 [5, 9] was 6.69 µM.

In the case of MLIIFWFSL, the IC50 ([1]; source organism: SARS-CoV1) is reported as 132 nM, the IC50 ([2]; source organism: SARS-CoV1) is reported as 1160 nM and the IC50 ([3]; source organism: SARS-CoV1) is reported as 490 nM. The IC50 ([4]; source organism: SARS-CoV1) was 13 µM and the IC50 ([5]; source organism: SARS-CoV1) was 6.91 µM.

In the case of GLLQFIVFL, the IC50 [1, 12] is reported as 0.6 nM, the IC50 [2, 12] is reported as 0.0075 nM and the IC50 [3, 12] is reported as 12 nM. The IC50 [4, 12] was 7.72 µM and the IC50 [5, 12] was 12 µM.

With KSYFTNAAL the IC50 [1, 10] was 593 nM, the IC50 [2, 10] was 4970 nM and the IC50 [6, 10] was 106 nM. The IC50 [4, 10] was 7.18 µM and the IC50 [8, 10] was 12 µM.

RSASGGVYL was tested, and the IC50 [1, 13] was 278 nM, the IC50 [6, 13] was 4440 nM and the IC50 [4, 13] was 14.5 µM. It also gave an IC50 [7, 13] of 32.5 µM and an IC50 [8, 13] of 13.6 µM.

VMDTLNGIMM gave an IC50 [1, 9] of 7.6 nM, an IC50 [2, 9] of 33 nM and an IC50 [3, 9] of 403 nM. It also gave an IC50 [4, 9] of 5.16 µM and an IC50 [5, 9] of 6.92 µM.

Work on LLLIVQALR yielded an IC50 [1, 11] of 1490 nM, an IC50 [2, 11] of 3090 nM and an IC50 [3, 11] of 3150 nM. For the same sequence, the IC50 [4, 11] was 8.19 µM and the IC50 [5, 11] was 42.4 µM.

In the case of CTSEIQNVT, the IC50 [1, 9] is reported as 188 nM, the IC50 [6, 9] is reported as 90 nM and the IC50 [4, 9] is reported as 5.19 µM. The IC50 [7, 9] was 13.5 µM and the IC50 [8, 9] was 10.2 µM.

Sequence NVSRVVECLT has an IC50 [1, 9] of 4660 nM, an IC50 [6, 9] of 550 nM and an IC50 [4, 9] of 14.3 µM. The IC50 [7, 9] was 9.45 µM and the IC50 [8, 9] was 10 µM.

Sequence GARVIWMDA has an IC50 [1, 9] of 4600 nM, an IC50 [3, 9] of 2140 nM and an IC50 [4, 9] of 9.14 µM. For the same sequence, the IC50 [7, 9] was 7.73 µM and the IC50 [5, 9] was 12 µM.

LSYSQTMLL showed an IC50 [1, 14] of 2110 nM, an IC50 [3, 14] of 3720 nM and an IC50 [4, 14] of 11.3 µM. It also gave an IC50 [7, 14] of 8.28 µM and an IC50 [5, 14] of 6.76 µM.

NIVTDLENRL gave an IC50 [1, 9] of 261 nM, an IC50 [3, 9] of 1550 nM and an IC50 [4, 9] of 17.6 µM. It also gave an IC50 [7, 9] of 19.6 µM and an IC50 [5, 9] of 13.2 µM.
